Data set [1] can be described thus: folding stability dG unfold from chymotrypsin proteolysis; higher = more stable. The procedure:
(§1)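 Folding stability of de novo designed mini-proteins (<80 aa, no Cys; designed by TrROS, TrMRF, ProteinMPNN and the joint model) was measured by cDNA display proteolysis with trypsin and chymotrypsin. Each protease was used at 11 concentrations in a threefold dilution series plus a no-protease condition. K50 was inferred by Bayesian fitting of sequencing counts, and dG unfold was derived against a sequence-predicted unfolded-state K50 (Tsuboyama et al. method). Sequences shown include variable-length N-terminal GS-type padding (SAGGSAGG...) inside a display construct carrying a PA tag. Rows were kept only if the AF2 dimer inter-PAE was >15, to exclude likely homo-oligomers.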

Data set [2] can be described thus: folding stability dG unfold (combined trypsin and chymotrypsin); higher = more stable. The procedure: as §1

± gives the half width of the 95% confidence interval.

For the sequence “KKRTIEIPFPANGYKVKIEVPEDQGKPIDEEEIQKLLREWHPDMPADDMPAKEIAKYLADEPGIKEVEIERS [r1_463_TrROS]”, the “folding stability dG unfold” value in data set [1] worked out at 0.479 ± 0.25 kcal/mol; in data set [2], 0.132 ± 0.28 kcal/mol. For the sequence “MDIPIKELLKKAAENGVRIVFPNGAETLSIFPDGEAVVRFPVELPDRPGIPVEEVERVIKIKEDGSLEVEGS [r1_284_TrMRF]”, the results for the “folding stability dG unfold” value in data set [1] and in data set [2] were -1.08 ± 0.65 kcal/mol and below -1 kcal/mol, respectively. As to “MTPEAFAGPGGRPLAELFLARFRRPVLDPETGLPTWEPAGVLVFPRETEPEELAAIFEALPELEEIEIAPAS [r1_132_TrMRF]”, the “folding stability dG unfold” value in data set [1] is 0.149 ± 0.22 kcal/mol; in data set [2], -0.149 ± 0.22 kcal/mol. The matching figures for “PEISELTSEESEDGTTFTETKVTLKDPNSNKKINATRKVETEVVGDSTTVTSTLTLPKDKKTINESYTISPS [r1_374_JUSTAS]”: -0.591 ± 0.61 kcal/mol and below -1 kcal/mol. With “PGEMVPIEWPVKVRVRDPNGPGNKKREVEIPIEYPYPPGQKDPEQMLEMAHELAEELAEKEGPKDVEIEPIS [r1_300_TrROS]”, the entries for the “folding stability dG unfold” value in data set [1] and in data set [2] were 0.271 ± 0.13 kcal/mol and -0.474 ± 0.31 kcal/mol, respectively. As for “SADKVIIPFDSPEEIKGIIKEARKAGIPGKEIVIWSEDDWMYKIEVDPNKGNVEIEPVMPPEDLNDEMPSAG [r14_913_TrROS]”, the “folding stability dG unfold” value amounted to 0.629 ± 0.048 kcal/mol in data set [1] and 0.0128 ± 0.12 kcal/mol in data set [2]. For “SAGAAAIAEKLGFSPELVEILSVEDVEYTIVVRRTGEPVKMKRPTVKVLVTDPSVPKETTAEVPVAELASAG [r5_517_JUSTAS]” the same measures were -0.807 ± 0.57 kcal/mol and -0.714 ± 0.35 kcal/mol. For “SAGDLGEEALKDITENSTPVSPNETRTTTAVIKYKDKLVKITTTVKVPPESGTTVLSTPIEIFSPEELKSAG [r5_96_JUSTAS]” the same measures were -0.118 ± 0.33 kcal/mol and below -1 kcal/mol. As to “SAGEVETRTLPDGSVEIRRVERDPNSDQEVETRERVTFDPATGTARVPREVYRGDRWETEERVIALPASAGG [r19_289_JUSTAS]”, the figures for the “folding stability dG unfold” value in data set [1] and in data set [2] were 0.456 ± 0.16 kcal/mol and -0.38 ± 0.27 kcal/mol, respectively. The matching figures for “SAGGATTERTFTFPSSVSPEEAAAAVAAEAPPGLRVDVAPVATRADPSGVTTTTLRARFTDPAAPAAASAGG [r13_12_JUSTAS]”: 0.297 ± 0.12 kcal/mol and below -1 kcal/mol. On to “SAGGDSLPENVIKIELEFEIETEDGSKIELKLEIYISPDNKIYVKAEATIILPDKPIKIEIDFEFDVSAGGS [r16_563_TrMRF]”, for which the “folding stability dG unfold” value was 3.35 ± 0.27 kcal/mol in data set [1] and 3.59 ± 0.88 kcal/mol in data set [2]. With “SAGGELLEDLNIKEIEVTEVKTYRNPENGMRMYEPTLTIKNPDGEKIKFTIEHMYDPGNPKPMIHIMSAGGS [r8_422_TrROS]”, in data set [1], the “folding stability dG unfold” value is -0.212 ± 0.52 kcal/mol. In the case of “SAGGENVIIRYKDPDRFKEAIQDAPGIPPENVKTKPNPNGWNEVTFPNPEALDRLKKAGYPVDKIEPSAGGS [r16_381_TrROS]”, the “folding stability dG unfold” value is -0.351 ± 0.38 kcal/mol in data set [1] and below -1 kcal/mol in data set [2]. “SAGGESIVIPVKTLEEAKKVAEEIKEKFEKLGYKVEIFEEPETGRIIVKVTKKDKGTVSTTIITFPVPSAGG [r13_641_JUSTAS]”: the “folding stability dG unfold” value in data set [1] amounted to 4.21 ± 0.76 kcal/mol.

As for “SAGGGMSPVGTTTSTSPSGVVTTTTTLEAPPPVVTTTTTTTTPVPPPLPPRPPYGPENRARALARAASAGGS [r16_6_JUSTAS]”, the “folding stability dG unfold” value in data set [1] is -0.146 ± 0.39 kcal/mol; in data set [2], below -1 kcal/mol. Regarding “SAGGGPPGVVKPFTEETTFTVPLAGGPPVEVKTTTTTYTSADPAKRSLVTTTTTSPQNATTTTVTPLSSAGG [r13_654_JUSTAS]”, the results for the “folding stability dG unfold” value in data set [1] and in data set [2] were -0.2 ± 0.23 kcal/mol and below -1 kcal/mol, respectively. The matching figures for “SAGGGSMVVEKPVALPPDTDVEEVAKEVAEELFPEDEKYKIEVERYPDSVRITVYDPKNGKPVIETVDSAGG [r13_724_JUSTAS]”: -0.565 ± 0.45 kcal/mol and below -1 kcal/mol. As to “SAGGIKVKITDEDGEEKTFKVKDINVNKSPNNGMPSLKIKLANGRPWVIMIPPGRPLEPGDEITVRPLSAGG [r13_390_TrROS]”, the “folding stability dG unfold” value was -0.371 ± 0.93 kcal/mol in data set [1] and -0.452 ± 0.63 kcal/mol in data set [2]. The matching figures for “SAGGKKKVVIKVEVKNKKTGKTFEKEIVIEIDENETEEQILEKAKELAKKLAEENGLEVKIVEIKPLSAGGS [r8_312_TrROS_Hall]”: 3.84 ± 0.18 kcal/mol and 4.43 ± 0.25 kcal/mol. The matching figures for “SAGGKLKEAFEKNGYKAYVHPDSPVVTVEFYKPVKLENGEWKPKKLGTKTIEVDGVDLEKAYEILLKESAGG [r13_924_TrMRF]”: 0.935 ± 0.29 kcal/mol and 0.402 ± 0.2 kcal/mol. For the sequence “SAGGKPGEPVKIKMRGPDGQPMTFPFYAPEPVKIKMNNPGEEHEHTIPPGEPLTFPLPPGDIEVEPVSAGGS [r16_456_TrROS]”, the “folding stability dG unfold” value in data set [1] is 0.315 ± 0.2 kcal/mol; in data set [2] it was -0.171 ± 0.2 kcal/mol. For “SAGGLEEVAQELEAQGGEVEVRKVGGGSTEITVRLREPEAPRLLEVRLSLPPAGARLQVLSREALPPSAGGS [r16_613_JUSTAS]” the same measures were -0.704 ± 0.51 kcal/mol and below -1 kcal/mol. With “SAGGLTTQETVSLTSPTNVALTVLSTSVTLSPSTRTLSYTVQGPDGTVTTETVVTPAPLPELDPSAGSAGGS [r16_132_JUSTAS]”, the “folding stability dG unfold” value in data set [1] is 0.346 ± 0.15 kcal/mol; in data set [2], -0.159 ± 0.15 kcal/mol. With “SAGGMIRRITIYITDPGPSAPATTTTITVDVPPDRPDVPDEEVAQRVAESIAPKTGATATVEKIEEVSAGGS [r8_101_JUSTAS]”, the entries for the “folding stability dG unfold” value in data set [1] and in data set [2] were 0.406 ± 0.071 kcal/mol and -0.159 ± 0.15 kcal/mol, respectively. “SAGGMKAKATFKIPKTFVDPKNNSPKISESEITIEREFKSEEEAKEFVEKIKEELPPELTELVSLELESAGG [r19_209_JUSTAS]”: the “folding stability dG unfold” value in data set [1] is -0.601 ± 0.48 kcal/mol; in data set [2] it was below -1 kcal/mol. For “SAGGMKIIKELYDKLPPEVKYFSVPFHYPTGKVEPVKPSPTLSMFEPFNPETGEVDRFVVYRDKIEPLSAGG [r13_803_TrMRF]” the same measures were 0.0804 ± 0.18 kcal/mol and -0.229 ± 0.24 kcal/mol.

Regarding “SAGGMKKITIPMKVLEEKFGIPKNTSPEELAKKLNPKEKVEVLSVTSEKSENGEENPTVTVLVIPPKESAGG [r13_723_TrMRF]”, the entries for the “folding stability dG unfold” value in data set [1] and in data set [2] were 0.0873 ± 0.14 kcal/mol and -0.22 ± 0.15 kcal/mol, respectively. The matching figures for “SAGGMKVEDFVLELPTPEGKKILVEAVKVTTDPEAGLISVELKTPDKKEKLTLSPDEYVRGPSPEEFLKSAG [r5_15_JUSTAS]”: -0.376 ± 0.19 kcal/mol and -0.562 ± 0.33 kcal/mol. In the case of “SAGGMPATLEVRLPDGAGAVGVVRADDPDEIIEAARAIPADAPVVLTTDDPAYGRLFLEAGFDVVTLESAGG [r13_476_TrMRF]”, the “folding stability dG unfold” value in data set [1] is 0.241 ± 0.066 kcal/mol; in data set [2], -0.138 ± 0.16 kcal/mol. On to “SAGGMPPNATLSGKRVDFKPVPHPDGKTLLKIYYNGKPIEEIEVPPGEAEKLIAELPENTNIVTLPESAGGS [r8_41_JUSTAS]”, for which the “folding stability dG unfold” value in data set [1] is -0.33 ± 0.58 kcal/mol. In the case of “SAGGSAGGSAGPEEFEVLEMEAELNPETGEITVRFGSPEGEEITYTVTRPGELENLKLYASAGGSAGGSAGG [r11_711_TrMRF]”, the “folding stability dG unfold” value in data set [1] was -0.136 ± 0.39 kcal/mol. Same read-out and setting: for “SAGGSAGGSYLVKIEWRHNGKPIEQTIPIDPGELPLEDIASNFPGYPWKIKVMDPNGEERPFTSAGGSAGGS [r12_540_TrROS]” the value was -0.0033 ± 0.33 kcal/mol; for “SAGGSAMNVKSKETVEELFSESPEKVSIKKTTTYTFPNSKTVEITYYKPDGKKIATKNLPLSEYSSSAGGSA [r15_755_JUSTAS]”, -0.238 ± 0.59 kcal/mol; for “SAGWVVIEIPKKEIPINPENVQIQEDNDRRYIFIPGEDADELKDQFPNKDVKIEPMPPEQMDRFMKQLSAGG [r19_271_TrROS]”, -0.242 ± 0.55 kcal/mol.

Consider “SAMKIYVAPGPFTVTARPALPGGEEITITTPITPEQVADPAFLEALVQALEDAGVPATYSILPAGVALPSAG [r14_60_JUSTAS]”, for which, in data set [1], the “folding stability dG unfold” value was 0.597 ± 0.22 kcal/mol.

For “SMPTTVLGSSPSVLPDGSVRYPVAVRRYPEYGVLVEETVTYFPGSGKFVPERRVEIPPDNPAALEWVRRESA [r9_980_JUSTAS]”, the “folding stability dG unfold” value in data set [2] is below -1 kcal/mol. Same read-out and setting: for “SMTLEEALANPEKLAEELAPPPTPAVDEEIDIVDPLTNTTRPARATVLLEPGRRVIVLPEDGAEYPVDPESA [r9_548_JUSTAS]” the value was below -1 kcal/mol; for “SNAKDLARELFEEHGYPIEPESIDPDEDWVTFRFEPPGEPPYDISIDVDPEEGKLKVTIDPQNGYITIPVSA [r9_1119_TrROS]”, below -1 kcal/mol; for “SPEGKDEKGVSYPIIVEKPDPKITPEKIKKAIEEAGGKVTKIVRPKKGKLLVVDVEVTDPEKAIEAIKKDSA [r9_1154_TrMRF]”, below -1 kcal/mol. With “SSLDDLSPEQAVDQAKFMVRMIRESRDNGKPEQYPKMINMLRRMASSAPPPDRKAVKEVLEEFKIPPEWFSA [r9_182_TrROS]”, the “folding stability dG unfold” value in data set [2] was below -1 kcal/mol. Consider “SVRPDEPVRITVRFPARPVTRYRARPTGPFLGAEPVPVPSATLTLTVPAADLEAVLDALRPLGVEVEVDPSA [r9_167_TrMRF]”, for which the “folding stability dG unfold” value in data set [2] was below -1 kcal/mol. On the same count and under the same terms, for “SVVTPYPDGTVVETEPVGDTVLRLVRRPRPLPGGEPVERTTVVLEPVSTRPLPNGELVTERPVLEEEHHHSA [r9_235_JUSTAS]” the value was below -1 kcal/mol; for “VSPEEKEKLEKLAAEPKPIKRTLEITTVKSEGPVELYVFTKKYFVPGKGEEVGEEVVVVPPEEVEELLAELS [r1_415_JUSTAS]”, below -1 kcal/mol; for “WIRIPNGQPFRIKAKMKNPDGDDRKHTGKIPMEELGQKNGRPITPEDILDEIKEEARDHGAPVEDVEIEYYS [r1_338_TrROS]”, below -1 kcal/mol. As to “YEIKDVEFPPYEHPGQEYPMFKIEVKDENGKPKKKVYINPNSGQLIPPGQSLEDMPMPPPFRKFAKELADES [r1_354_TrROS]”, the “folding stability dG unfold” value in data set [2] is below -1 kcal/mol.

Source of the values: the supplement of paper PMC12764529.
